Experimental data: patent US20240059799A1 (Pfizer, published 2024)
Residue numbers refer to the chain shown, from its start.

T1: recombinant human TL1A (human, UniProt O95150 71-251)
T1 construct: homotrimer; biotinylated for SPR capture; the ELISA paragraphs say only 'recombinant TL1A'; also called TNFSF15
T1 chain: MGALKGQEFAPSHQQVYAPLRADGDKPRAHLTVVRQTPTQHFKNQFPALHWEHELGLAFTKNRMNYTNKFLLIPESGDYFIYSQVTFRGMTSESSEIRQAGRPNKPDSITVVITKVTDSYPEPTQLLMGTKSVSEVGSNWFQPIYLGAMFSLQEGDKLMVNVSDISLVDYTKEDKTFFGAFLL

B1: TL1A-0062 (antibody, IgG1, V domains shown)
VH: QVQLVQSGAEVKKPGASVKVSCKASGYDYTYYGISWVRQAPGQGLEWMGWISTYNGNTHYARMLQGRVTMTTDTSTRTAYMELRSLRSDDTAVYYCARENYYGSGAYRGGMDVWGQGTTVTVSS
VL: EIVLTQSPATLSLSPGERATLSCRASQSVSSYLAWYQQKPGQAPRLLIYDASNRATGIPARFSGSGSGTDFTLTISSLEPEDFAVYYCQQRSNWPWTFGQGTKVEIKR
notes: IgG1/kappa variant of TL1A-0002
B2: TL1A-0079 (antibody, IgG1, V domains shown)
VH: B1 VH with Y29F, N55Q
VL: B1 VL
notes: as for B1
B3: TL1A-0080 (antibody, IgG1, V domains shown)
VH: B1 VH with Y29F, N55G
VL: B1 VL
notes: as for B1
B4: TL1A-0067 (antibody, IgG1, V domains shown)
VH: B1 VH with Y29F, Y31F
VL: B1 VL
notes: as for B1
B5: TL1A-0081 (antibody, IgG1, V domains shown)
VH: B1 VH with Y29F, T53A
VL: B1 VL
notes: as for B1
B6: TL1A-0074 (antibody, IgG1, V domains shown)
VH: B1 VH with Y29F, G56T, R62P, M63S
VL: B1 VL
notes: as for B1
B7: TL1A-0069 (antibody, IgG1, V domains shown)
VH: B1 VH with Y29F, Y32H
VL: B1 VL
notes: as for B1
B8: TL1A-0083 (antibody, IgG1, V domains shown)
VH: B1 VH with Y29F, N55G, R62Q, M63K
VL: B1 VL
notes: as for B1
B9: TL1A-0071 (antibody, IgG1, V domains shown)
VH: B1 VH with Y29F, I34V
VL: B1 VL
notes: as for B1
B10: TL1A-0084 (antibody, IgG1, V domains shown)
VH: B1 VH with Y29F, I51A
VL: B1 VL
notes: as for B1
B11: TL1A-0068 (antibody, IgG1, V domains shown)
VH: B1 VH with Y29F, Y31K
VL: B1 VL
notes: as for B1
B12: TL1A-0076 (antibody, IgG1, V domains shown)
VH: B1 VH with Y29F, G56D, R62P, M63S
VL: B1 VL
notes: as for B1
B13: TL1A-0063 (antibody, IgG1, V domains shown)
VH: B1 VH with Y29F, T30S
VL: B1 VL
notes: as for B1
B14: TL1A-0073 (antibody, IgG1, V domains shown)
VH: B1 VH with Y29F, G56T, R62Q, M63K
VL: B1 VL
notes: as for B1
B15: TL1A-0082 (antibody, IgG1, V domains shown)
VH: B1 VH with Y29F, T53A, R62Q, M63K
VL: B1 VL
notes: as for B1
B16: TL1A-0085 (antibody, IgG1, V domains shown)
VH: B1 VH with Y29F, I51A, R62Q, M63K
VL: B1 VL
notes: as for B1

Molecular target: T1, recombinant human TL1A
Assay: competition ELISA vs bio-TL1A-0002
Procedure: For this competition ELISA assay procedure, 96-well high binding plates (Corning, product number 3590) were coated with 1 μg/mL recombinant TL1A in 100 μL/well in Phospate Buffered Saline (PBS) overnight at 4° C. Plates were then blocked in PBS+0.02% casein solution and washed with PBS+0.05% Tween-20 following standard ELISA protocol. […] Plates were washed with PBS+0.05% Tween-20 following standard ELISA protocol, and Streptavidin-HRP (Southern Biotech, product number 7100-05) diluted to 1:10,000 in assay buffer was added to plates and incubated for 25-30 minutes at room temperature. Next, the plates were washed with PBS+0.05% Tween-20 following standard ELISA protocol, and then TMB substrate (BioFX Laboratories, catalog number TMBW-0100-01) was added to plates. Reactions were stopped after approximately 5 minutes by adding 0.18 M ortho-phosphoric acid to each well and absorbance was read at 450 nm.

Binder	Bioactivity relative to TL1A-0002 [fold]	IC50 [nM]
B1	0.9	4
B2	1.3	5.8
B3	1.1	5
B4	1.1	5.1
B5	0.9	4.1
B6	1	4.5
B7	0.9	4.1
B8	1.5	6.8
B9	0.9	3.9
B10	1	4.5
B11	1	4.6
B12	1.2	5.4
B13	0.9	4.1
B14	1.1	5
B15	1.2	5.2
B16	1	4.7
